Residue numbers refer to the chain shown, from its start. No end group written: not given here.
Key:
[1] = molecular target: rat bombesin receptor subtype-3 (rat) (UniProt Q8K418); test: summary statement in the description; assay not named
[2] = molecular target: rat bombesin receptor subtype-3 (rat) (UniProt Q8K418); test: cell-based or functional assay
RBB3-E3 (rat; human) = RBB3-E3 (rat; human) (UniProt Q8K418); test: cell-based or functional assay
RB3-AMH (rat) = RB3-AMH (rat) (UniProt Q8K418); test: cell-based or functional assay
RB3-VD (rat) = RB3-VD (rat) (UniProt Q8K418); test: cell-based or functional assay
RB3-IF (rat) = RB3-IF (rat) (UniProt Q8K418); test: cell-based or functional assay
RB3-SQT (rat) = RB3-SQT (rat) (UniProt Q8K418); test: cell-based or functional assay
[3] = molecular target: human bombesin receptor subtype-3 (human) (UniProt P32247); test: cell-based or functional assay
RBB3-E3 = molecular target: T1, RBB3-E3 (Rattus norvegicus, UniProt Q8K418, A302V/D306A/E299Q/E303D/P308H/S300T/V307M/V310I/V311F/Y298S); test: Radioligand binding assay with 125I-dYB; set-up: species or system rat/human; conditions: competition with [125I]dYB
T1 construct: expressed in transfected cells; host or cells: 293EBNA cells, pE3 expression vector
T1 sequence (Q8K418 1-399 Y298S/E299Q/S300T/A302V/E303D/D306A/V307M/P308H/V310I/V311F): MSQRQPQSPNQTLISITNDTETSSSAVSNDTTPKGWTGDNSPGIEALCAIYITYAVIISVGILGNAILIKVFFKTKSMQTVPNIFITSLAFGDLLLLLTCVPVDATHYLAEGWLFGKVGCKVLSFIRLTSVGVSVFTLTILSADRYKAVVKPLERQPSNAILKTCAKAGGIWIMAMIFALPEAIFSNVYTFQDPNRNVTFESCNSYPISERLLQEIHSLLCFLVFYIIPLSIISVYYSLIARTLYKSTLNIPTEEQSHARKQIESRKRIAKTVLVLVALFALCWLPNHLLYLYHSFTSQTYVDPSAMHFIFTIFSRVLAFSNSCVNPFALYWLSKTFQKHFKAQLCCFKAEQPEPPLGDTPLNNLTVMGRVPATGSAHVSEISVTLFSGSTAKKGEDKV
Description: After removal of cell nuclei by a low speed centrifugation (1000×g) step, the cell membrane proteins were collected by centrifugation at 35,000×g for 20 minutes. The membrane protein concentration was determined by the Bradford method using BSA as standard.
After a 2 hr incubation at room temperature, the binding reaction was terminated by filtering through a GF/c filter-mate and washing the filter with binding buffer using Packard 96-well Topcount Harvester. The amount of radioligand bound to the receptor was determined by measurement of the radioactivity on the filter through liquid scintillation counting. The non-specific binding was defined as the binding in the presence of 1 uM unlabeled dYB.

rat BRS-3 [4] = molecular target: T2, rat BRS-3 (Rattus norvegicus, UniProt Q8K418); test: Phosphatidylinositol hydrolysis functional assay; type: cell-based; conditions: peptide at 10 uM, transfected 293EBNA cells
T2 construct: utilized to PCR amplify full-length rat BRS-3 cDNA; expressed in transfected cells; host or cells: 293EBNA cells, pE3 expression vector
T2 sequence (Q8K418 1-399): T1 sequence (Q8K418 1-399 Y298S/E299Q/S300T/A302V/E303D/D306A/V307M/P308H/V310I/V311F) with S298Y, Q299E, T300S, V302A, D303E, A306D, M307V, H308P, I310V, F311V
Description: (§1) Wild type and mutant BRS-3 constructs were transfected by using lipofectamine reagents (Life Technologies, Rockville, Md.) into 293EBNA cells (Invitrogen, Carlsbad, Calif.) which support episomal replication of plasmid containing Epstein Bar virus OriP segment. Stable cell lines were obtained by selection with 250 ug/ml hygromycin. The cells were maintained as monolayers in Dulbecco's modified Eagle's medium (Life Technologies, Rockville, Md.) supplemented with 10% fetal bovine serum and incubated at 37° C. in a humidified 5% CO2 incubator.
The functional properties of rat BRS-3 were characterized in transfected 293EBNA cells. The transfected 293EBNA cells were plated onto poly-D-lysine coated 12-well plates and incubated in the medium containing 2 uCi/ml [^3H]myo-inositol. The cells were labeled for 48 hrs, and subsequently incubated for 30 minutes in Hank's balanced salt solution containing 10 mM HEPES, 0.1% BSA and 10 mM LiCl.
Since a natural agonist of BRS-3 has not been found, members of the bombesin-like peptide family, including GRP, NMB, bombesin and dYB, were used to stimulate the transfected cells described above, in the same buffer, for 1 hr at 37° C. The reaction was stopped by removal of medium and addition of 10 mM formic acid. The inositol monophosphate fraction was then isolated by anion chromatography as described (Berridge et al. Biochem. J. 212: 473-482 (1983), which is hereby incorporated by reference).

rat BRS-3 [5] = molecular target: T2, rat BRS-3; test: Calcium mobilization assay (FLIPR), transfected 293EBNA cells; type: cell-based
Description: as §1
The functional activity of rat BRS-3 was also studied by measuring the agonist-induced calcium mobilization response using a Fluorescence Imaging Plate Reader (Molecular Devices, Sunnyvale, Calif.). Transfected 293EBNA cells were plated onto poly-D-lysine coated 96-well plates with black wall and clear bottom (Becton Dickinson, Franklin Lakes, N.J.). After 16-48 hr culture, the cells were loaded with 4 uM Fluo-3-AM fluorescent calcium-indicator dye (Molecular Probes, Eugene, OR) in assay buffer (Hank's balanced salts solution, 10 mM HEPES, pH7.4, 0.1% bovine serum albumin, 2.5 mM probenecid).
The changes in intracellular calcium concentration, as indicated by Fluo-3 fluorescence, were immediately measured by FLIPR. Maximal changes in fluorescence over base line were used to determine agonist response.
The EC50 values were mean±S.E. calculated from dose-response curves of 3-5 repeated experiments using FLIPR assays.

Chain of human bombesin receptor subtype-3 (human) (P32247 whole entry): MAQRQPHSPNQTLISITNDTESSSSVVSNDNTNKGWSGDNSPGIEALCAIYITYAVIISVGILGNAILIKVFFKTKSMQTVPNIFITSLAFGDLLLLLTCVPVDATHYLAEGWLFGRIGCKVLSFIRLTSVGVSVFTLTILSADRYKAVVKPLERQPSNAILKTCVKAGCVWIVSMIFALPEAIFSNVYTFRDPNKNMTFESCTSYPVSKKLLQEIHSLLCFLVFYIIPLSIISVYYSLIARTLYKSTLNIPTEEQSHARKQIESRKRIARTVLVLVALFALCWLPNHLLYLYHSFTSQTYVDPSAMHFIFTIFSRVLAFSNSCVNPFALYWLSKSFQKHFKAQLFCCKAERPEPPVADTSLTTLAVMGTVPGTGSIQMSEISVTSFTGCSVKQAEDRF

[D-Tyr6-betaAla11-Phe13-Nle14] bombesin (6-14) (peptide)
fold lower affinity than human BRS-3 [1]: 1000 fold | EC50, calcium mobilization (FLIPR) [2]: 2200 nM | fold difference in dYB potency between human and rodent BRS-3 [2]: 1000 fold | phosphatidylinositol (PI) hydrolysis, inositol monophosphate production, peptide at 10 uM [2]: 9 fold | EC50, calcium mobilization (FLIPR) (RBB3-E3 (rat; human)): 2.8 nM | EC50, calcium mobilization (FLIPR) (RB3-AMH (rat)): 370 nM | fold improvement of dYB potency against rat BRS-3, calcium mobilization (RB3-AMH (rat)): 6 fold | EC50, calcium mobilization (FLIPR) (RB3-VD (rat)): 930 nM | EC50, calcium mobilization (FLIPR) (RB3-IF (rat)): 1300 nM | EC50, calcium mobilization (FLIPR) (RB3-SQT (rat)): 390 nM | fold improvement of dYB potency against rat BRS-3, calcium mobilization (RB3-SQT (rat)): 5 fold | EC50, calcium mobilization (FLIPR) [3]: 1.2 nM

phyllolitorin
binding affinity (RBB3-E3): uM low affinities

gastrin-releasing peptide (VPLPAGGGTVLTKMYPRGNHWAVGHLM; ends and bridges not checked; UniProt P07492 24-50, looked up) [GRP, bombesin-like peptide found in mammals]
binding affinity (RBB3-E3): uM low affinities | stimulation of phosphatidylinositol (PI) hydrolysis (inositol monophosphate production) (rat BRS-3 [4]): significant increase | intracellular calcium response (rat BRS-3 [5]; concentrations below 1.0 uM): none of the four peptides could stimulate a significant calcium response | intracellular calcium response (rat BRS-3 [5]; peptide at 10 uM): transient increase in intracellular calcium concentration

neuromedin B [NMB]
binding affinity (RBB3-E3): uM low affinities | stimulation of phosphatidylinositol (PI) hydrolysis (inositol monophosphate production) (rat BRS-3 [4]): significant increase | intracellular calcium response (rat BRS-3 [5]; concentrations below 1.0 uM): none of the four peptides could stimulate a significant calcium response | intracellular calcium response (rat BRS-3 [5]; peptide at 10 uM): transient increase in intracellular calcium concentration
